{"source": "paper doi:10.1101/2022.12.07.519389", "about": "(bioRxiv, 2022)", "target": "the molecule itself", "assay": "negative-stain EM + ThT fluorescence", "data": [{"protein": "CPEB3 residues 1-217 (prion-like domain 1 construct) (domain or fragment) MQDDLLMDKSKTQPQPQQQQRQQQQPQPESSVSEAPSTPLSSETPKPEENSAVPALSPAAAPPAPNGPDKMQMESPLLPGLSFHQPPQQPPPPQEPAAPGASLSPSFGSTWSTGTTNAVEDSFFQGITPVNGTMLFQNFPHHVNPVFGGTFSPQIGLAQTQHHQQPPPPAPAPQPAQPAQPPQAQPPQQRRSPASPSQAPYAQRSAAAAYGHQPIMT", "values": [{"measurement": "binding result", "value": "binds"}]}]}
